Source: PMC8837617 (2022)
No end group written: not given here. *: point of attachment. 5FAM = O=C1OC2(c3ccc(O)cc3Oc3cc(O)ccc32)c2ccc(C(=O)*)cc21

Target: MAPK ERK2 (human, UniProt P28482 1-360)
Test: FP

Sequence of MAPK ERK2 (P28482 whole entry): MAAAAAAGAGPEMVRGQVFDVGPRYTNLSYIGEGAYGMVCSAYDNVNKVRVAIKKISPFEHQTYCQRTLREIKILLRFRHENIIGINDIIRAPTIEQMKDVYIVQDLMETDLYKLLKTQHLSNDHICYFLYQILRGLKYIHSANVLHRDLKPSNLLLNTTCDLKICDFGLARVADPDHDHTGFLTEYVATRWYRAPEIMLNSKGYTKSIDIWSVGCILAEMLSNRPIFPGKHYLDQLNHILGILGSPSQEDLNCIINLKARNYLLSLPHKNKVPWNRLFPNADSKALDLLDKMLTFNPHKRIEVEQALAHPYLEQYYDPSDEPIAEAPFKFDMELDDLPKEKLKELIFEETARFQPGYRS

## 5FAM-RLQERRGSNVALMLDV [fluorescent reporter peptide fl-HePTP]
  Kd: 23.9 µM
